Source: publication PMC8752127 (Structure(London, England:1993), 2022)

Target: CEP164^1−109 (N-terminal domain of human CEP164), untagged (human, UniProt Q9UPV0)
Test: crystal structure; nanobody and CEP164 1-109 (or the TTBK2 1074-1087-CEP164 1-109 fusion protein) mixed equimolar; vapour diffusion at 19°C
Details: both partners purified

B1: camelid nanobody 36Z (VHH)
VHH: QVQLQESGGGLVQAGGSLNLSCVASGSSHFNSMGWYRQAPGKQRDLVADISNDGVTNYADSVKDRFTISTNNAKNAVYLQMNNLKPEDTAVYYCNAVAVAGRAFSYWGQGTQVTVSS
B1: binds.
